± gives the standard error. Fewer inactive variants are shown than the library holds.
B1: glmS ribozyme (parent)
chain: AUAAAAGCGCCAGAACUACAGAAAUGUAGUUGACGAGGAGGAGGUUUAUCGAAUUUUCGGCGGAUGCCUCCAAA

Experiments:
Conditions in all cases: with glucosamine-6-phosphate
glucosamine-6-phosphate [1] = variants of: B1; assay: self-cleavage kobs at 640 uM GlcN6P; higher = faster cleavage; RNA array
Outline: (§1)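 Tiles of sequenced MiSeq chips were imaged over ~14 h at 37 °C. On them, barcoded ribozyme variants had been transcribed in situ by E. coli RNA polymerase and were tracked via a hybridised Cy3 probe while glucosamine-6-phosphate (40 μM to 10 mM) in HEPES/KCl/Mg(OAc)2 buffer flowed in. Per-tile medians, normalised to baseline and to non-cleaving reference variants, were fit to one- or two-exponential decays for kobs, and weighted Michaelis–Menten fits gave kcat and KM.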

glucosamine-6-phosphate [2] = variants of: B1; assay: self-cleavage kobs at 2500 uM GlcN6P; higher = faster cleavage; RNA array
Outline: as §1

glucosamine-6-phosphate [3] = variants of: B1; assay: self-cleavage kobs at 10000 uM GlcN6P; higher = faster cleavage; RNA array
Outline: as §1

| Variant | self-cleavage kobs at 640 uM GlcN6P (glucosamine-6-phosphate [1]) [s⁻¹] | self-cleavage kobs at 2500 uM GlcN6P (glucosamine-6-phosphate [2]) [s⁻¹] | self-cleavage kobs at 10000 uM GlcN6P (glucosamine-6-phosphate [3]) [s⁻¹] |
| --- | --- | --- | --- |
| AUAAAAGCGCCAGAACUACAGAAAUGUAGAUGACGAGGAGGAGGUUUAUCGAAUUUUCGGCGGAUGCCUGUAAA [U30A C70G C71U] | 5.91e-05 ± 2.5e-05 | 8.51e-05 ± 2.9e-05 | – |
| AUAAAAGCGCCAGAACUACAGAAAUGUAGUUGACGAGGAGGAGGUUAAUCGAAUUUUUGGCGGACGCCUCCAAA [U47A C58U U65C] | < 1e-05 | – | – |
| AUAAAAGCGCCACAACUACAGAAAUGUAGUUGACGAGGCGGAGGUUUAUCGAAUUUUCGGAGGAUGCCUUCAAA [G13C A39C C61A C70U] | < 1e-05 | – | – |
| AUAAAAGCGCCAGAACUACAGAAAUGUAGUUGACGCGGAGAAGGUUUAUGGAAUUUUGGGCGGAUGCCUCCAAA [A36C G41A C50G C58G] | < 1e-05 | – | – |
| AUAAAAGCGCAAGAACUACAGAAAUGUAGUUGACGAGUUGGAGGUUUAUCGAAUUUUCGACGGAUGCCUCCAAA [C11A G38U A39U G60A] | < 1e-05 | < 1e-05 | – |
| AUAAAAGCGCCAGAACUACAGAAAUGUAGUUGACGGGGAGGAAGUUUAUCGAAUUUUCUGCGGAUGCCUCCAAA [A36G G43A G59U] | < 1e-05 | < 1e-05 | – |
| AUAAAAGCGGCAGAACUACAGAAAUGUAGUUGACGAGGAGGAGGUUUACCGAAUUUUCGGCGGAUCCCUCCAAA [C10G U49C G66C] | < 1e-05 | < 1e-05 | – |
| AUAAAAGCUCCAGAACUACAGAAAUGUAGUUGACGAGGAGGAGGUUUAUCGAAUUUUCGGCCGAUGUCUCCAAA [G9U G62C C67U] | < 1e-05 | < 1e-05 | – |
| AUAAAAGCGCCAGUACUACAGAAAUGUAGUUGACGAGGAGGAGGUUUAUCGAAUUUUCGGCUGAUGCCACCAAA [A14U G62U U69A] | < 1e-05 | – | – |
| AUAAAAGCGCCAGAACUACAGAAAUGUAGUUGACGACGAGGAGGUUUAUCGAAUUUUCGGCCCAUGUCUCCAAA [G37C G62C G63C C67U] | < 1e-05 | – | – |
| AUAAAAGCGCCAAAACUACAGAAAUGUAGUUCACGAGGAGGACGUUUAUCGAAUUUUCGGCGGAUGCGUCCAAA [G13A G32C G43C C68G] | 7.7e-05 ± 2.2e-05 | 0.000154 ± 5e-05 | – |
| AUAAAAGCGCCAGAACUACAGAAAUGUAAUUGACGAGGAGGAGGCGUAUCGACUUUUCGGCGGAUGGCGCCAAA [G29A U45C U46G A53C C67G U69G] | < 1e-05 | < 1e-05 | – |
| AUAAAAGCGCCAGAACUACAGAAAUGUAGUUGACGAGGAAGAGGUUUAUCAAAUUUUCAGCGGAUGCCUCCAAA [G40A G51A G59A] | < 1e-05 | – | – |
| AUAAAAGCGCCAGAACUACAGAAAUGUAUUUGACGAAGAGGAGGUUUAACGAAUUUUGGGCUGAUGCCUCCAAA [G29U G37A U49A C58G G62U] | < 1e-05 | – | – |
| AUAAAAGCGCCAGAACUACAGAAAUGUAGUUGACGACGGGGAGGAUUAACGAAUUUUCGGCGGAUGCCUCCAAA [G37C A39G U45A U49A] | < 1e-05 | < 1e-05 | – |
| AUAAAAGCGCCAGAACUACAGAAAUGUAGUUGACGACGAGGAGGUUUAUCGAAUUUUCGGCGGAUGCUGCCAAA [G37C C68U U69G] | 6e-05 ± 2e-05 | – | – |
| AUAAAAGCGCCAGAACUACAGAAAUGUAGUUGACGAGGACGAGGUUUAUCGAAUUCUCGGCGGCUGCCUACAAA [G40C U56C A64C C70A] | < 1e-05 | – | – |
| AUAAAAGCGCCAGAACUACAGAAAUGUAGUUGACGAGAAGGAGUUUUAUAGAAUUUUCGGCGGAUGCCUCCAAA [G38A G44U C50A] | < 1e-05 | – | – |
| AUAAAAGCGCCAGAACUACAGAAAUGUAGUUGACGAGGAGGCGGUUGAUCGAAUUUCCGGCGGAUGCCUCCAAA [A42C U47G U57C] | < 1e-05 | < 1e-05 | – |
| AUAAAGGCGCCAGAACUACAGAAAUGUAGUUGACGAGGAGGAGGUUUAUCGAAUUUUCGGGGGAUGCCUCGAAA [A6G C61G C71G] | 7.45e-05 ± 2.4e-05 | – | – |
| AUAAAAGCGCCAUAACUACAGAAAUGUAGAUGACGAGGAGGAGGUUUAUCGAGUUUUCGGCGGAUGCCUCCAAA [G13U U30A A53G] | 5.33e-05 ± 1.9e-05 | – | 4.23e-05 ± 1.5e-05 |
| AUAAAAGAGCCAGAUCUACAGAAAUGUAGUUGACGAGGAGGAGGUUUCUCGAAUUUUCGGCGGAUGCCUCCAAA [C8A A15U A48C] | < 1e-05 | – | – |
| AUAAAAGCGCCAGAACUACAGAAAUGUAGUCGACGAGGAGGAGGUUUAUGGAAUUUUCAGCGGAUGCCUCGAAA [U31C C50G G59A C71G] | 7.63e-05 ± 1.9e-05 | – | – |
| AUAAAAGCGCCAGAACUACAGAAAUGUAGUUUACGAGCAGGAGGUUUAUCGAAUUUUCGGCGGAUGCUUCCAAA [G32U G38C C68U] | < 1e-05 | – | – |
| AUAAAAUCACCAGAACUACAGAAAUGUAGUUGACGAGGACGAGGUUUAUCGAAUUUUCGGCGGAUGCCUCCAAA [G7U G9A G40C] | < 1e-05 | < 1e-05 | – |
| AUAAAAGCGCCAGAACUACAGAAAUGUAGUUGACGAGGAGAAGAUUUAUCGAAUUUUCGACGGAUGCCUCCAAA [G41A G44A G60A] | < 1e-05 | – | – |

Reference: the supplement of paper PMC7125110
